Assay results: patent publication US20190270786A1 (PROTAGONIST THERAPEUTICS, published 2019)
Values belong to the binder of their own block, whether it stands above or below them. Bridge positions count the residues as written; N and C are the ends.

Assays:
mouse IL-23 = target: T1, mouse IL-23 (mouse, UniProt Q9EQ14 22-196; P43432 23-335); experiment: Mouse IL23/IL23R huFc competition ELISA
T1 sequence (looked up) 1: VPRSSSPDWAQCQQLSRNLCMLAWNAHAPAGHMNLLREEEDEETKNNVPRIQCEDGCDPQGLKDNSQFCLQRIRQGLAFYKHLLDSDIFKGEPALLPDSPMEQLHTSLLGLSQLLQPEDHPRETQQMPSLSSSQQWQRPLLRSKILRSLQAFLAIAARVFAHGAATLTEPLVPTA
T1 sequence (looked up) 2: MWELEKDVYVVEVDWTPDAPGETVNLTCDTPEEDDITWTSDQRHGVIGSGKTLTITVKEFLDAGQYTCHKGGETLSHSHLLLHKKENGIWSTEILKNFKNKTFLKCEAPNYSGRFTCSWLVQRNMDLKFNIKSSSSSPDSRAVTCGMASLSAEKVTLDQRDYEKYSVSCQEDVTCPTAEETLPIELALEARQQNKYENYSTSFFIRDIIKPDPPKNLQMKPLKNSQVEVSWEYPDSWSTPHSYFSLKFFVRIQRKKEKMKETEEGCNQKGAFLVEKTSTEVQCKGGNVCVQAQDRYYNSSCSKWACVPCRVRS

human IL-23 [1] = target: T2, human IL-23 (human, UniProt Q9NPF7 20-189; P29460 23-328); experiment: Human IL23/IL12Rβ1 huFc competition ELISA (IL-12Rβ1_huFC coated, IL-23 at its EC50)
T2 construct: also called interleukin-23
T2 sequence (looked up) 1: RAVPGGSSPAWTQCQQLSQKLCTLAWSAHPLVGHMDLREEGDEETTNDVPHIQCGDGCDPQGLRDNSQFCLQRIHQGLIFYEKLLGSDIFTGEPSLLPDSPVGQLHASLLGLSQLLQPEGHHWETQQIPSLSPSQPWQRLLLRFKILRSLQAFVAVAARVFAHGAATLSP
T2 sequence (looked up) 2: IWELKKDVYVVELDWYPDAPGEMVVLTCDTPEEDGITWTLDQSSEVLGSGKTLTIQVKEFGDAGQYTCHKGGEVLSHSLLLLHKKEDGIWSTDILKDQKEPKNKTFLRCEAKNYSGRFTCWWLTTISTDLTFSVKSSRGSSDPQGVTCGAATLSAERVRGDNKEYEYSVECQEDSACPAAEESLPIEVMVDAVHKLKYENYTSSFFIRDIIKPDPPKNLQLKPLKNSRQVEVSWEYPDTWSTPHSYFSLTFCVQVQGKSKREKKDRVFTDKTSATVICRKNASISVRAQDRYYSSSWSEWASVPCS
Description: (§1) Human IL-12Rβ1 ELISA assays were performed as follows: an assay plate was coated with 100 ng/well of human IL-12Rβ1_huFC and incubated overnight at 4° C. The wells were washed, blocked, and washed again. […] Signals were visualized with TMB One Component HRP Membrane Substrate and quenched with 2 M sulfuric acid.

human IL-23 [2] = target: T2, human IL-23; experiment: Human IL23/IL23R huFc competition ELISA
Description: (§2) Immulon® 4HBX plate was coated with 200 ng/well of IL23R_huFC and incubated overnight at 4° C. The wells were washed three times with PBST, blocked with PBS containing 5% PhosphoBLOCKER (Cell Biolabs #AKR-103) for 1 hour at room temperature, and washed again three times with PBST. […] The wells were again washed four times with PBST. The secondary antibodies, HRP conjugated donkey anti-goat IgG (Jackson ImmunoResearch Laboratories #705-035-147) diluted 1:5000 in PBS, was then added and incubated for 30 minutes at room temperature. The plate was finally washed as above. Signals were visualized with TMB One Component HRP Membrane Substrate, quenched with 2 M sulfuric acid and read spectrophotometrically at 450 nm.

human IL-23 [3] = target: T2, human IL-23; experiment: cell-based or functional assay
human IL-12 = target: T3, human IL-12 (human, UniProt P29459 23-219; P29460 23-328); experiment: Human IL12/IL12Rβ1 huFc competition ELISA (IL-12Rβ1_huFC coated, IL-12 at its EC50)
T3 sequence (looked up) 1: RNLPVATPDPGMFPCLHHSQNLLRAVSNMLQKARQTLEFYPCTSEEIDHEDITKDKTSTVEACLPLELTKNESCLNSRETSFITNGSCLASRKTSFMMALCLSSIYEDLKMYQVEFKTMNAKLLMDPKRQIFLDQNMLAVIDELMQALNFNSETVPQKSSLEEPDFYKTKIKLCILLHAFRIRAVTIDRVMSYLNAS
T3 sequence (looked up) 2: T2 sequence (looked up) 2
Description: as §1

human IL-23 [4] = target: T2, human IL-23; experiment: IL23-IL23R competitive binding ELISA (IL23R_huFC coated, 0.9 nM IL-23, peptide titrated); bin by the legend in paragraph 291
Description: as §2

IC50 (mouse IL-23): 3.6 µM
IC50 (human IL-23 [1]): > 100 µM
IC50 (human IL-23 [2]): 3.3 µM
Mouse splenocyte assay: IC50 of IL-23-dependent IL-17A release (human IL-23 [3]): 1.6 µM
IC50 (human IL-12): > 100 µM
B1: Peptide 10 (peptide)
peptide: Ac-FNMQCLRRMSEAGVDPNLNQEQRWAKIKSIMDDC-NH2
modifications: disulfide 5-34
SMILES: CC[C@H](C)[C@@H]1NC(=O)[C@H](CCCCN)NC(=O)[C@H](C)NC(=O)[C@H](Cc2c[nH]c3ccccc23)NC(=O)[C@H](CCCNC(=N)N)NC(=O)[C@H](CCC(N)=O)NC(=O)[C@H](CCC(=O)O)NC(=O)[C@H](CCC(N)=O)NC(=O)[C@H](CC(N)=O)NC(=O)[C@H](CC(C)C)NC(=O)[C@H](CC(N)=O)NC(=O)[C@@H]2CCCN2C(=O)[C@H](CC(=O)O)NC(=O)[C@H](C(C)C)NC(=O)CNC(=O)[C@H](C)NC(=O)[C@H](CCC(=O)O)NC(=O)[C@H](CO)NC(=O)[C@H](CCSC)NC(=O)[C@H](CCCNC(=N)N)NC(=O)[C@H](CCCNC(=N)N)NC(=O)[C@H](CC(C)C)NC(=O)[C@@H](NC(=O)[C@H](CCC(N)=O)NC(=O)[C@H](CCSC)NC(=O)[C@H](CC(N)=O)NC(=O)[C@H](Cc2ccccc2)NC(C)=O)CSSC[C@@H](C(N)=O)NC(=O)[C@H](CC(=O)O)NC(=O)[C@H](CC(=O)O)NC(=O)[C@H](CCSC)NC(=O)[C@H]([C@@H](C)CC)NC(=O)[C@H](CO)NC(=O)[C@H](CCCCN)NC1=O
notes: Synthetic peptide

IC50 (human IL-23 [4]): ≤ 1 µM
B2: Peptide 13 (peptide)
peptide: Ac-FNMQCLRRMAEAGVDPNLNQEQRWAKIKSIMDDC-NH2
modifications: disulfide 5-34
SMILES: CC[C@H](C)[C@@H]1NC(=O)[C@H](CCCCN)NC(=O)[C@H](C)NC(=O)[C@H](Cc2c[nH]c3ccccc23)NC(=O)[C@H](CCCNC(=N)N)NC(=O)[C@H](CCC(N)=O)NC(=O)[C@H](CCC(=O)O)NC(=O)[C@H](CCC(N)=O)NC(=O)[C@H](CC(N)=O)NC(=O)[C@H](CC(C)C)NC(=O)[C@H](CC(N)=O)NC(=O)[C@@H]2CCCN2C(=O)[C@H](CC(=O)O)NC(=O)[C@H](C(C)C)NC(=O)CNC(=O)[C@H](C)NC(=O)[C@H](CCC(=O)O)NC(=O)[C@H](C)NC(=O)[C@H](CCSC)NC(=O)[C@H](CCCNC(=N)N)NC(=O)[C@H](CCCNC(=N)N)NC(=O)[C@H](CC(C)C)NC(=O)[C@@H](NC(=O)[C@H](CCC(N)=O)NC(=O)[C@H](CCSC)NC(=O)[C@H](CC(N)=O)NC(=O)[C@H](Cc2ccccc2)NC(C)=O)CSSC[C@@H](C(N)=O)NC(=O)[C@H](CC(=O)O)NC(=O)[C@H](CC(=O)O)NC(=O)[C@H](CCSC)NC(=O)[C@H]([C@@H](C)CC)NC(=O)[C@H](CO)NC(=O)[C@H](CCCCN)NC1=O
notes: Synthetic peptide

IC50 (human IL-23 [1]): 0.14 µg/mL
B3: Ustekinumab (antibody, V domains shown)
VH: EVQLVQSGAEVKKPGESLKISCKGSGYSFTTYWLGWVRQMPGKGLDWIGIMSPVDSDIRYSPSFQGQVTMSVDKSITTAYLQWNSLKASDTAMYYCARRRPGQGYFDFWGQGTLVTVSS
VL: DIQMTQSPSSLSASVGDRVTITCRASQGISSWLAWYQQKPEKAPKSLIYAASSLQSGVPSRFSGSGSGTDFTLTISSLQPEDFATYYCQQYNIYPYTFGQGTKLEIK
